Experimental data taken from the supplement of paper PMC6379048.

Assays:
Experiment in all cases: EC50 of free RNA motif oligo competing protein binding to immobilised probe
AASS = molecular target: T1, AASS (UniProt Q9UDR5)
T1 sequence: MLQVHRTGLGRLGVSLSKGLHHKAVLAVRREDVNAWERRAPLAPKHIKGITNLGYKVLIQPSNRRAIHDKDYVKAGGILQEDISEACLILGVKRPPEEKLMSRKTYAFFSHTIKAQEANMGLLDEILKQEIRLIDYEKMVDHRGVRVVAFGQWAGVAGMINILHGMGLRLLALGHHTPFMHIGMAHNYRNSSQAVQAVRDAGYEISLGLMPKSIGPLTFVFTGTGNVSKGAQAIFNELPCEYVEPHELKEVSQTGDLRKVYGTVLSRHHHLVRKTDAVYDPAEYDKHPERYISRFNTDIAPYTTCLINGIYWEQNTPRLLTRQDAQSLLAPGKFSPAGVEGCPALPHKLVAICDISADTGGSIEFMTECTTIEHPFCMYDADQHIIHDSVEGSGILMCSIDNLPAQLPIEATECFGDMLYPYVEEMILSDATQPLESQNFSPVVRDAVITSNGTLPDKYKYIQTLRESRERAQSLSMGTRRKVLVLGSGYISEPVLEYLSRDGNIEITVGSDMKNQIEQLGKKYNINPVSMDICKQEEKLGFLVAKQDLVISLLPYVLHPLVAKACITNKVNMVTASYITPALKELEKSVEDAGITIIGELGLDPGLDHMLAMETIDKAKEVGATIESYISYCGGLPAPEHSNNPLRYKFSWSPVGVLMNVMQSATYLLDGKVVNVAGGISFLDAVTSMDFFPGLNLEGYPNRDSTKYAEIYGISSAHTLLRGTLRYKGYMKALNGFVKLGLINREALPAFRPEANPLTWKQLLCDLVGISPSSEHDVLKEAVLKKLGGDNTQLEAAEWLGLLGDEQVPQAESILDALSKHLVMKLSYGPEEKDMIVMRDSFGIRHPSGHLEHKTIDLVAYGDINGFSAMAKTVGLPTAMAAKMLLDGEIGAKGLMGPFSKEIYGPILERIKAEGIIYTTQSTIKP
How it was run: (§1)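 HEK293-FT lysate (2.5 mg protein/well) was pre-incubated 1 h at 4°C with free RNA oligos (0 nM to 30 μM), then 30 min at 4°C with the same 5′-amino-C6 oligos coupled to NHS-Sepharose beads. Bound proteins were quantified by label-free LC-MS/MS in three biological replicates and two independent experiments, and normalised to the water control. EC50 came from a four-parameter log-logistic fit; Kd is EC50 times a protein-dependent depletion factor.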

MCM4 = molecular target: T2, MCM4 (UniProt P33991)
T2 sequence: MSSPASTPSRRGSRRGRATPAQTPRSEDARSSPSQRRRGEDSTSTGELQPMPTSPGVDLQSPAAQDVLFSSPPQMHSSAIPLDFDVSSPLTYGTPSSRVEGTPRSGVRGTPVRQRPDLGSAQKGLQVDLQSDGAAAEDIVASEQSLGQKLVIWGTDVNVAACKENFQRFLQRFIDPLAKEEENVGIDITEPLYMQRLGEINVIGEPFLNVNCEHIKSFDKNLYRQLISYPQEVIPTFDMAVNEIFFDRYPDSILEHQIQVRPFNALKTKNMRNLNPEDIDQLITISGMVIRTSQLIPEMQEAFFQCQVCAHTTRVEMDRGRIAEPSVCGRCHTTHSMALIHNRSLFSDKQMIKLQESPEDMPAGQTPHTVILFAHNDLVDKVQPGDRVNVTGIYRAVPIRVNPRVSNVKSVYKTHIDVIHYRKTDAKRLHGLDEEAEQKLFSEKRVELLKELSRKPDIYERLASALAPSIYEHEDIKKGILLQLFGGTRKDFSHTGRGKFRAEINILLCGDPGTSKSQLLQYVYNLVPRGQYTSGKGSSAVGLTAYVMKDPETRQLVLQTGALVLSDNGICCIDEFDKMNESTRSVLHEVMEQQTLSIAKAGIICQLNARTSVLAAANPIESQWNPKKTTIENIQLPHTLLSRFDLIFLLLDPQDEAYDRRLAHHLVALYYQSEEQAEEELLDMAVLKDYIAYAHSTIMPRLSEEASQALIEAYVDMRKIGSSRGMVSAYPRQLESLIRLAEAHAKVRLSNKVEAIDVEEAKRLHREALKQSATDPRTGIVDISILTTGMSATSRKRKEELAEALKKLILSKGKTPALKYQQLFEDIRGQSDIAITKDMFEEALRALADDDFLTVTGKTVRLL
How it was run: as §1

HNRNPA2B1 = HNRNPA2B1 (UniProt P22626)
Chain of HNRNPA2B1 (P22626 whole entry): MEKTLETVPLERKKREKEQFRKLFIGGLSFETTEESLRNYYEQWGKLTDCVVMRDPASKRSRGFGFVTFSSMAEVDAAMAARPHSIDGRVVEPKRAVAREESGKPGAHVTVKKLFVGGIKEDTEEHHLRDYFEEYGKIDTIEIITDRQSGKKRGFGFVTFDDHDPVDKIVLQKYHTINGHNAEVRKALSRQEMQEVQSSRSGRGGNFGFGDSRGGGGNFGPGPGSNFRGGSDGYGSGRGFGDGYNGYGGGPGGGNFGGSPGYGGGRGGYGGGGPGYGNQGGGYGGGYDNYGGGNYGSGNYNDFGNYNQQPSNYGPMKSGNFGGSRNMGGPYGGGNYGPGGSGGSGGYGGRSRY
How it was run: as §1

CWF19L1 = molecular target: T3, CWF19L1 (UniProt Q69YN2)
T3 sequence: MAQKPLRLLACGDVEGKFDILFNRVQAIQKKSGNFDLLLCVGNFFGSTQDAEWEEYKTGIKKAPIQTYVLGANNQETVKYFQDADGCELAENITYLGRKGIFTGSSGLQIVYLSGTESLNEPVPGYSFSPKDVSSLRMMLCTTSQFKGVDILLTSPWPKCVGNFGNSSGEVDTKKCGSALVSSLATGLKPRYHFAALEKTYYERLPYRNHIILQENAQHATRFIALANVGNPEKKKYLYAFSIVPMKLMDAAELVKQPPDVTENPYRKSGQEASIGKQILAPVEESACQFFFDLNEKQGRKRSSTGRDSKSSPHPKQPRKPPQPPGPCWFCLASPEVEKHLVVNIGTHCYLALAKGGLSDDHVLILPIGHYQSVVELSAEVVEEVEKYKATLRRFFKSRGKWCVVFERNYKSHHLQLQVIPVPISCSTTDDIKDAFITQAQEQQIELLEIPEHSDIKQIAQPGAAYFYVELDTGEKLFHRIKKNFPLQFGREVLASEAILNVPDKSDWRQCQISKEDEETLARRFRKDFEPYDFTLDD
How it was run: as §1

Row | Sequence | EC50 (AASS) [µM] | EC50 (MCM4) [nM] | EC50 (HNRNPA2B1) [µM] | EC50 (CWF19L1) [µM]
1 | AAUAAA | 9.78 | 50 |  | 
2 | UAUUUAU |  |  | 7.32 | 3.16
